# Measured values as given in patent publication US20160264649A1.
# Legend:
# Test in all cases: cell-based or functional assay
# [1] = molecular target: HIV-1 92RW020 Env (HIV-1)
# [2] = molecular target: HIV-1 92UG001 Env (HIV-1)
# [3] = molecular target: HIV-1 92UG005 Env (HIV-1)
# [4] = molecular target: HIV-1 92UG024 Env (HIV-1)
# [5] = molecular target: HIV-1 93IN905 Env (HIV-1)
# [6] = molecular target: HIV-1 93IN905 Env on pseudovirus (HIV-1)
# [7] = molecular target: HIV-1 93MW959 Env on pseudovirus (HIV-1)
# [8] = molecular target: HIV-1 93TH305 Env on pseudovirus (HIV-1)
# [9] = molecular target: HIV-1 93UG077 Env (HIV-1)
# [10] = molecular target: HIV-1 98CN009 Env on pseudovirus (HIV-1)
# [11] = molecular target: HIV-1 APV_6 Env on pseudovirus (HIV-1)
# [12] = molecular target: HIV-1 CMU02 Env (HIV-1)
# [13] = molecular target: HIV-1 IAVI-C18 Env (HIV-1)
# [14] = molecular target: HIV-1 IAVI-C22 Env (HIV-1)
# [15] = molecular target: HIV-1 JRCSF Env on pseudovirus (HIV-1) (UniProt P20871)
# [16] = molecular target: HIV-1 JRFL Env on pseudovirus (HIV-1)
# [17] = molecular target: HIV-1 MGRM-AE-001 Env (HIV-1)
# [18] = molecular target: HIV-1 MGRM-AG-006 Env (HIV-1)
# [19] = molecular target: HIV-1 MGRM-AG-009 Env (HIV-1)
# [20] = molecular target: HIV-1 MGRM-AG-012 Env (HIV-1)
# [21] = molecular target: HIV-1 MGRM-C-004 Env on pseudovirus (HIV-1)
# [22] = molecular target: HIV-1 MGRM-C-005 Env on pseudovirus (HIV-1)
# [23] = molecular target: HIV-1 MGRM-C-013 Env on pseudovirus (HIV-1)
# [24] = molecular target: HIV-1 MGRM-C-014 Env on pseudovirus (HIV-1)
# [25] = molecular target: HIV-1 MGRM-C-023 Env on pseudovirus (HIV-1)
# [26] = molecular target: HIV-1 MGRM-Chronic-B-003 Env on pseudovirus (HIV-1)
# [27] = molecular target: HIV-1 MGRM-Chronic-B-011 Env on pseudovirus (HIV-1)
# [28] = molecular target: HIV-1 MGRM-Chronic-B-012 Env on pseudovirus (HIV-1)
# [29] = molecular target: HIV-1 MGRM-Chronic-B-024 Env on pseudovirus (HIV-1)
# [30] = molecular target: HIV-1 MGRM-D-011 Env (HIV-1)
# [31] = molecular target: HIV-1 MGRM-D-012 Env (HIV-1)
# [32] = molecular target: HIV-1 MGRM-D-024 Env (HIV-1)
# [33] = molecular target: HIV-1 MGRM-F1-006 Env (HIV-1)
# [34] = molecular target: HIV-1 MGRM-F1-008 Env (HIV-1)
# [35] = molecular target: HIV-1 MGRM-F1-010 Env (HIV-1)
# [36] = molecular target: HIV-1 MGRM-F1-016 Env (HIV-1)
# [37] = molecular target: HIV-1 MGRM-F1-020 Env (HIV-1)
# [38] = molecular target: HIV-1 MGRM-F1-021 Env (HIV-1)
# [39] = molecular target: HIV-1 MGRM-F1-022 Env (HIV-1)
# [40] = molecular target: HIV-1 MGRM-G-004 Env (HIV-1)
# [41] = molecular target: HIV-1 MGRM-G-006 Env (HIV-1)
# [42] = molecular target: HIV-1 MGRM-G-014 Env (HIV-1)
# [43] = molecular target: HIV-1 MGRM-G-017 Env (HIV-1)
# [44] = molecular target: HIV-1 MGRM-G-019 Env (HIV-1)
# [45] = molecular target: HIV-1 MGRM-G-024 Env (HIV-1)
# [46] = molecular target: HIV-1 MGRM-G-027 Env (HIV-1)
# [47] = molecular target: HIV-1 MGRM-G-028 Env (HIV-1)
# [48] = molecular target: HIV-1 NL43 Env (HIV-1)
# [49] = molecular target: HIV-1 SF162 Env on pseudovirus (HIV-1) (UniProt P19550)
# [50] = molecular target: HIV-1 THR0.18 (Acute) Env on pseudovirus (HIV-1)
# 1443_C16 (PG16) (TCN-116) (antibody), sequence (VH): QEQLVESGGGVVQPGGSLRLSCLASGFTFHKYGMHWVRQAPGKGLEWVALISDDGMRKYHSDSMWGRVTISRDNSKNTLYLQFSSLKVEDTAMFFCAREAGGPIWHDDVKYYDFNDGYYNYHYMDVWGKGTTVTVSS
# 1443_C16 (PG16) (TCN-116) (antibody), sequence (VL): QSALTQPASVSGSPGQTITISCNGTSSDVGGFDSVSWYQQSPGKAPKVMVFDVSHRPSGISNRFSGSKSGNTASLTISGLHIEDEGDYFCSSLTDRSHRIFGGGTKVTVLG
substance,measurement,setting,value
4E10 (antibody),neutralization IC50,[1],3.38 µg/mL
same,neutralization IC90,[1],36.1 µg/mL
same,"IC50 (µg/ml), pseudovirus neutralization",[2],13.6 µg/mL
same,"IC50 (µg/ml), pseudovirus neutralization",[3],7.46 µg/mL
same,neutralization IC50,[3],8.86 µg/mL
same,neutralization IC90,[3],> 50 µg/mL
same,"IC50 (µg/ml), pseudovirus neutralization",[4],2.17 µg/mL
same,neutralization IC50,[4],1.32 µg/mL
same,neutralization IC90,[4],23.7 µg/mL
same,neutralization IC50,[5],1.55 µg/mL
same,neutralization IC90,[5],12.8 µg/mL
same,IC50,[6],1.26 µg/mL
same,IC50,[7],4.55 µg/mL
same,IC50,[8],12.3 µg/mL
same,neutralization IC50,[9],11.2 µg/mL
same,neutralization IC90,[9],> 50 µg/mL
same,IC50,[10],2.46 µg/mL
same,IC50,[11],1.1 µg/mL
same,"IC50 (µg/ml), pseudovirus neutralization",[12],0.72 µg/mL
same,neutralization IC50,[12],0.59 µg/mL
same,neutralization IC90,[12],13.4 µg/mL
same,neutralization IC50,[13],> 50000 ng/mL
same,neutralization IC90,[13],> 50 µg/mL
same,neutralization IC50,[14],1.02 µg/mL
same,neutralization IC90,[14],16.4 µg/mL
same,IC50,[15],3.3 µg/mL
same,IC50,[16],18.9 µg/mL
same,"IC50 (µg/ml), pseudovirus neutralization",[17],0.85 µg/mL
same,"IC50 (µg/ml), pseudovirus neutralization",[18],1.76 µg/mL
same,"IC50 (µg/ml), pseudovirus neutralization",[19],31.4 µg/mL
same,"IC50 (µg/ml), pseudovirus neutralization",[20],0.86 µg/mL
same,IC50,[21],24.2 µg/mL
same,IC50,[22],16.4 µg/mL
same,IC50,[23],2.1 µg/mL
same,IC50,[24],2.48 µg/mL
same,IC50,[25],1.95 µg/mL
same,IC50,[26],3.5 µg/mL
same,IC50,[27],1.07 µg/mL
same,IC50,[28],48 µg/mL
same,IC50,[29],9.19 µg/mL
same,"IC50 (µg/ml), pseudovirus neutralization",[30],0.91 µg/mL
same,"IC50 (µg/ml), pseudovirus neutralization",[31],1.13 µg/mL
same,"IC50 (µg/ml), pseudovirus neutralization",[32],3.6 µg/mL
same,IC50 (pseudovirus neutralization),[33],1.01 µg/mL
same,IC50 (pseudovirus neutralization),[34],2.75 µg/mL
same,IC50 (pseudovirus neutralization),[35],3.69 µg/mL
same,IC50 (pseudovirus neutralization),[36],7.61 µg/mL
same,IC50 (pseudovirus neutralization),[37],0.66 µg/mL
same,IC50 (pseudovirus neutralization),[38],1.87 µg/mL
same,IC50 (pseudovirus neutralization),[39],1.01 µg/mL
same,"IC50 (µg/ml), pseudovirus neutralization",[40],1.47 µg/mL
same,"IC50 (µg/ml), pseudovirus neutralization",[41],1.23 µg/mL
same,"IC50 (µg/ml), pseudovirus neutralization",[42],13.7 µg/mL
same,"IC50 (µg/ml), pseudovirus neutralization",[43],1.14 µg/mL
same,"IC50 (µg/ml), pseudovirus neutralization",[44],6.53 µg/mL
same,"IC50 (µg/ml), pseudovirus neutralization",[45],1.57 µg/mL
same,"IC50 (µg/ml), pseudovirus neutralization",[46],1.19 µg/mL
same,"IC50 (µg/ml), pseudovirus neutralization",[47],6.32 µg/mL
same,neutralization IC50,[48],4.95 µg/mL
same,neutralization IC90,[48],29.6 µg/mL
same,IC50,[49],4.28 µg/mL
same,IC50,[50],4.68 µg/mL
1443_C16 (PG16) (TCN-116) (antibody),"IC50, TZM-bl pseudovirus neutralization",[1],0.09 µg/mL
same,neutralization IC50,[1],0.004 µg/mL
same,neutralization IC90,[1],> 50 µg/mL
same,"IC50 (µg/ml), pseudovirus neutralization",[2],> 50 µg/mL
same,"IC50 (µg/ml), pseudovirus neutralization",[3],> 50 µg/mL
same,neutralization IC50,[3],> 50 µg/mL
same,neutralization IC90,[3],> 50 µg/mL
same,"IC50 (µg/ml), pseudovirus neutralization",[4],24 µg/mL
same,neutralization IC50,[4],> 50 µg/mL
same,neutralization IC90,[4],> 50 µg/mL
same,neutralization IC50,[5],0.102 µg/mL
same,neutralization IC90,[5],> 50 µg/mL
same,IC50,[6],0.25 µg/mL
same,IC50,[7],0.007 µg/mL
same,IC50,[8],19.3 µg/mL
same,neutralization IC50,[9],> 50 µg/mL
same,neutralization IC90,[9],> 50 µg/mL
same,IC50,[10],5.76 µg/mL
same,IC50,[11],0.29 µg/mL
same,"IC50 (µg/ml), pseudovirus neutralization",[12],43.6 µg/mL
same,neutralization IC50,[12],> 50 µg/mL
same,neutralization IC90,[12],> 50 µg/mL
same,neutralization IC50,[13],6.7 ng/mL
same,neutralization IC90,[13],0.207 µg/mL
same,neutralization IC50,[14],0.0687 µg/mL
same,neutralization IC90,[14],> 50 µg/mL
same,IC50,[15],0.001 µg/mL
same,IC50,[16],> 50 µg/mL
same,"IC50 (µg/ml), pseudovirus neutralization",[17],4.33 µg/mL
same,"IC50 (µg/ml), pseudovirus neutralization",[18],> 50 µg/mL
same,"IC50 (µg/ml), pseudovirus neutralization",[19],> 50 µg/mL
same,"IC50 (µg/ml), pseudovirus neutralization",[20],25.1 µg/mL
same,IC50,[21],5.09 µg/mL
same,IC50,[22],2.55 µg/mL
same,IC50,[23],> 50 µg/mL
same,IC50,[24],> 50 µg/mL
same,IC50,[25],0.09 µg/mL
same,IC50,[26],0.19 µg/mL
same,IC50,[27],> 50 µg/mL
same,IC50,[28],3.74 µg/mL
same,IC50,[29],0.01 µg/mL
same,"IC50 (µg/ml), pseudovirus neutralization",[30],0.01 µg/mL
same,"IC50 (µg/ml), pseudovirus neutralization",[31],0.35 µg/mL
same,"IC50 (µg/ml), pseudovirus neutralization",[32],0.02 µg/mL
same,IC50 (pseudovirus neutralization),[33],0.27 µg/mL
same,IC50 (pseudovirus neutralization),[34],> 50 µg/mL
same,IC50 (pseudovirus neutralization),[35],0.01 µg/mL
same,IC50 (pseudovirus neutralization),[36],1.12 µg/mL
same,IC50 (pseudovirus neutralization),[37],4.35 µg/mL
same,IC50 (pseudovirus neutralization),[38],> 50 µg/mL
same,IC50 (pseudovirus neutralization),[39],0.08 µg/mL
same,"IC50 (µg/ml), pseudovirus neutralization",[40],> 50 µg/mL
same,"IC50 (µg/ml), pseudovirus neutralization",[41],2.42 µg/mL
same,"IC50 (µg/ml), pseudovirus neutralization",[42],6.98 µg/mL
same,"IC50 (µg/ml), pseudovirus neutralization",[43],0.02 µg/mL
same,"IC50 (µg/ml), pseudovirus neutralization",[44],1.21 µg/mL
same,"IC50 (µg/ml), pseudovirus neutralization",[45],0.01 µg/mL
same,"IC50 (µg/ml), pseudovirus neutralization",[46],0.01 µg/mL
same,"IC50 (µg/ml), pseudovirus neutralization",[47],3.09 µg/mL
same,neutralization IC50,[48],< 0.0025 µg/mL
same,neutralization IC90,[48],> 50 µg/mL
same,IC50,[49],> 50 µg/mL
same,IC50,[50],1.34 µg/mL
